In paper PMC3534898 one finds FRET efficiency (E FRET), vehicle treated cells data, which are given here for one molecule.

This experiment has as its target Presenilin 1 (mouse (endogenous in primary neurons of CD1 mice)), P49769. The experiment is described as follows: FRET or BRET. As to conditions: remark: other sources report otherwise.

B1: amyloid β precursor protein, P12023 18-770 (natural protein)
chain: LEVPTDGNAGLLAEPQIAMFCGKLNMHMNVQNGKWESDPSGTKTCIGTKEGILQYCQEVYPELQITNVVEANQPVTIQNWCKRGRKQCKTHTHIVIPYRCLVGEFVSDALLVPDKCKFLHQERMDVCETHLHWHTVAKETCSEKSTNLHDYGMLLPCGIDKFRGVEFVCCPLAEESDSVDSADAEEDDSDVWWGGADTDYADGGEDKVVEVAEEEEVADVEEEEADDDEDVEDGDEVEEEAEEPYEEATERTTSTATTTTTTTESVEEVVREVCSEQAETGPCRAMISRWYFDVTEGKCVPFFYGGCGGNRNNFDTEEYCMAVCGSVSTQSLLKTTSEPLPQDPDKLPTTAASTPDAVDKYLETPGDENEHAHFQKAKERLEAKHRERMSQVMREWEEAERQAKNLPKADKKAVIQHFQEKVESLEQEAANERQQLVETHMARVEAMLNDRRRLALENYITALQAVPPRPHHVFNMLKKYVRAEQKDRQHTLKHFEHVRMVDPKKAAQIRSQVMTHLRVIYERMNQSLSLLYNVPAVAEEIQDEVDELLQKEQNYSDDVLANMISEPRISYGNDALMPSLTETKTTVELLPVNGEFSLDDLQPWHPFGVDSVPANTENEVEPVDARPAADRGLTTRPGSGLTNIKTEEISEVKMDAEFGHDSGFEVRHQKLVFFAEDVGSNKGAIIGLMVGGVVIATVIVITLVMLKKKQYTSIHHGVVEVDAAVTPEERHLSKMQQNGYENPTYKFFEQMQN
B1 showed an FRET efficiency (E FRET), vehicle treated cells of 7.07%.
